In PMC8054679:
Read-outs that look alike come from different tables or passages of the source.

Tests used:
Assay in all cases: split reporter
SmBiT-CHIP [1] = molecular target: SmBiT-CHIP
SmBiT-CHIP K30A = molecular target: SmBiT-CHIP K30A
SmBiT-CHIP [2] = molecular target: SmBiT-CHIP; remark: listed apart in the source
SmBiT-CHIP-FLAG = molecular target: SmBiT-CHIP-FLAG
SmBiT-CHIP-FLAG, sequence (Q9UNE7 whole entry): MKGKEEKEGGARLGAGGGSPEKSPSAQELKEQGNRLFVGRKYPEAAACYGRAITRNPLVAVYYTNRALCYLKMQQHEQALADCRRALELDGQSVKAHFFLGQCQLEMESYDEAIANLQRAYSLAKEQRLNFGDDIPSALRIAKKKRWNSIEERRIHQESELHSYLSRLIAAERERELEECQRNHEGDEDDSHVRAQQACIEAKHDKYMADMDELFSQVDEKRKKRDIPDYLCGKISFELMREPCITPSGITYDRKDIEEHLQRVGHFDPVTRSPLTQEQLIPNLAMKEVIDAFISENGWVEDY

SmBiT-CHIP, sequence (Q9UNE7 whole entry): as above

Row | fold increase in luminescence over the negative control (SmBiT-CHIP [1]) | fold increase in luminescence over the negative control (SmBiT-CHIP K30A) | fold increase in luminescence over the negative control (SmBiT-CHIP [2]) | luminescence with dox (SmBiT-CHIP-FLAG) | Binder
1 | 180 fold | 97 fold | 160 to 180 fold | – | GGSGIEEVD [LgBiT-IEEVD]
2 | 300 fold | – | – | – | GGSGLWWPD [LgBiT-LWWPD]
3 | – | – | – | 47300 RLU | GGSGIEEVD [myc-LgBiT-IEEVD]
